# Results published in US20070072239A1 (Pfizer, published 2007).
# B1: SFRP-1/SFRP-2 (1-248/238-295) chimera (receptor)
# chain: SEYDYVSFQSDIGPYQSGRFYTKPPQCVDIPADLRLCHNVGYKKMVLPNLLEHETMAEVKQQASSWVPLLNKNCHAGTQVFLCSLFAPVCLDRPIYPCRWLCEAVRDSCEPVMQFFGFYWPEMLKCDKFPEGDVCIAMTPPNATEASKPQGTTVCPPCDNELKSEAIIEHLCASEFALRMKIKEVKKENGDKKIVPKKKKPLKLGPIKKKDLKKLVLWLKDSLQCTCEEMNDINAPYLVMGQKQGGELVITSVKRWQKGQREFKRISRSIRKLQC
# Biological target: T1, Wnt3 (human, UniProt P56703 22-355 at identity 1.00), limits assumed)
# T1 chain: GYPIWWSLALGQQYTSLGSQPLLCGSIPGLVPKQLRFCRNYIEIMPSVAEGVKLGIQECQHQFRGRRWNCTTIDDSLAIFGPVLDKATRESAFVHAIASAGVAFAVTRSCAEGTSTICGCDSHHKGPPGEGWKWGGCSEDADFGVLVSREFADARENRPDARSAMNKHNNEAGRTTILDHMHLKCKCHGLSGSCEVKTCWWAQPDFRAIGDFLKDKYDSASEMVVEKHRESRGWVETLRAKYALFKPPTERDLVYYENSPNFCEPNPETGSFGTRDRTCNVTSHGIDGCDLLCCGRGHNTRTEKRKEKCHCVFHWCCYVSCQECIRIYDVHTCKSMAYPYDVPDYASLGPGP
# Test: cell-based or functional assay
binder,measurement,value
B1,loss of Wnt3 antagonist activity relative to SFRP-1 (TCF-Luciferase reporter),~40 % loss of activity
